The chains are these.
B1: cyclic nNOS β-hairpin peptide D114G (peptide)
peptide: cyclo(THLETTFTGGGTPKTIRVTQ[dP]GQ)
SMILES: CC[C@H](C)[C@@H]1NC(=O)[C@H]([C@@H](C)O)NC(=O)[C@H](CCCCN)NC(=O)[C@@H]2CCCN2C(=O)[C@H]([C@@H](C)O)NC(=O)CNC(=O)CNC(=O)CNC(=O)[C@H]([C@@H](C)O)NC(=O)[C@H](Cc2ccccc2)NC(=O)[C@H]([C@@H](C)O)NC(=O)[C@H]([C@@H](C)O)NC(=O)[C@H](CCC(=O)O)NC(=O)[C@H](CC(C)C)NC(=O)[C@H](Cc2c[nH]cn2)NC(=O)[C@H]([C@@H](C)O)NC(=O)[C@H](CCC(N)=O)NC(=O)CNC(=O)[C@H]2CCCN2C(=O)[C@H](CCC(N)=O)NC(=O)[C@H]([C@@H](C)O)NC(=O)[C@H](C(C)C)NC(=O)[C@H](CCCNC(=N)N)NC1=O
B2: cyclic nNOS β-hairpin peptide D114P (peptide)
peptide: cyclo(THLETTFTGPGTPKTIRVTQ[dP]GQ)
SMILES: CC[C@H](C)[C@@H]1NC(=O)[C@H]([C@@H](C)O)NC(=O)[C@H](CCCCN)NC(=O)[C@@H]2CCCN2C(=O)[C@H]([C@@H](C)O)NC(=O)CNC(=O)[C@@H]2CCCN2C(=O)CNC(=O)[C@H]([C@@H](C)O)NC(=O)[C@H](Cc2ccccc2)NC(=O)[C@H]([C@@H](C)O)NC(=O)[C@H]([C@@H](C)O)NC(=O)[C@H](CCC(=O)O)NC(=O)[C@H](CC(C)C)NC(=O)[C@H](Cc2c[nH]cn2)NC(=O)[C@H]([C@@H](C)O)NC(=O)[C@H](CCC(N)=O)NC(=O)CNC(=O)[C@H]2CCCN2C(=O)[C@H](CCC(N)=O)NC(=O)[C@H]([C@@H](C)O)NC(=O)[C@H](C(C)C)NC(=O)[C@H](CCCNC(=N)N)NC1=O
B3: cyclic nNOS β-hairpin peptide H106E (peptide)
peptide: cyclo(TELETTFTGDGTPKTIRVTQ[dP]GQ)
SMILES: CC[C@H](C)[C@@H]1NC(=O)[C@H]([C@@H](C)O)NC(=O)[C@H](CCCCN)NC(=O)[C@@H]2CCCN2C(=O)[C@H]([C@@H](C)O)NC(=O)CNC(=O)[C@H](CC(=O)O)NC(=O)CNC(=O)[C@H]([C@@H](C)O)NC(=O)[C@H](Cc2ccccc2)NC(=O)[C@H]([C@@H](C)O)NC(=O)[C@H]([C@@H](C)O)NC(=O)[C@H](CCC(=O)O)NC(=O)[C@H](CC(C)C)NC(=O)[C@H](CCC(=O)O)NC(=O)[C@H]([C@@H](C)O)NC(=O)[C@H](CCC(N)=O)NC(=O)CNC(=O)[C@H]2CCCN2C(=O)[C@H](CCC(N)=O)NC(=O)[C@H]([C@@H](C)O)NC(=O)[C@H](C(C)C)NC(=O)[C@H](CCCNC(=N)N)NC1=O
B4: cyclic nNOS β-hairpin peptide H106F (peptide)
peptide: cyclo(TFLETTFTGDGTPKTIRVTQ[dP]GQ)
SMILES: CC[C@H](C)[C@@H]1NC(=O)[C@H]([C@@H](C)O)NC(=O)[C@H](CCCCN)NC(=O)[C@@H]2CCCN2C(=O)[C@H]([C@@H](C)O)NC(=O)CNC(=O)[C@H](CC(=O)O)NC(=O)CNC(=O)[C@H]([C@@H](C)O)NC(=O)[C@H](Cc2ccccc2)NC(=O)[C@H]([C@@H](C)O)NC(=O)[C@H]([C@@H](C)O)NC(=O)[C@H](CCC(=O)O)NC(=O)[C@H](CC(C)C)NC(=O)[C@H](Cc2ccccc2)NC(=O)[C@H]([C@@H](C)O)NC(=O)[C@H](CCC(N)=O)NC(=O)CNC(=O)[C@H]2CCCN2C(=O)[C@H](CCC(N)=O)NC(=O)[C@H]([C@@H](C)O)NC(=O)[C@H](C(C)C)NC(=O)[C@H](CCCNC(=N)N)NC1=O
B5: cyclic nNOS β-hairpin peptide D114R (peptide)
peptide: cyclo(THLETTFTGRGTPKTIRVTQ[dP]GQ)
SMILES: CC[C@H](C)[C@@H]1NC(=O)[C@H]([C@@H](C)O)NC(=O)[C@H](CCCCN)NC(=O)[C@@H]2CCCN2C(=O)[C@H]([C@@H](C)O)NC(=O)CNC(=O)[C@H](CCCNC(=N)N)NC(=O)CNC(=O)[C@H]([C@@H](C)O)NC(=O)[C@H](Cc2ccccc2)NC(=O)[C@H]([C@@H](C)O)NC(=O)[C@H]([C@@H](C)O)NC(=O)[C@H](CCC(=O)O)NC(=O)[C@H](CC(C)C)NC(=O)[C@H](Cc2c[nH]cn2)NC(=O)[C@H]([C@@H](C)O)NC(=O)[C@H](CCC(N)=O)NC(=O)CNC(=O)[C@H]2CCCN2C(=O)[C@H](CCC(N)=O)NC(=O)[C@H]([C@@H](C)O)NC(=O)[C@H](C(C)C)NC(=O)[C@H](CCCNC(=N)N)NC1=O
B6: cyclic nNOS β-hairpin peptide F111V (peptide)
peptide: cyclo(THLETTVTGDGTPKTIRVTQ[dP]GQ)
SMILES: CC[C@H](C)[C@@H]1NC(=O)[C@H]([C@@H](C)O)NC(=O)[C@H](CCCCN)NC(=O)[C@@H]2CCCN2C(=O)[C@H]([C@@H](C)O)NC(=O)CNC(=O)[C@H](CC(=O)O)NC(=O)CNC(=O)[C@H]([C@@H](C)O)NC(=O)[C@H](C(C)C)NC(=O)[C@H]([C@@H](C)O)NC(=O)[C@H]([C@@H](C)O)NC(=O)[C@H](CCC(=O)O)NC(=O)[C@H](CC(C)C)NC(=O)[C@H](Cc2c[nH]cn2)NC(=O)[C@H]([C@@H](C)O)NC(=O)[C@H](CCC(N)=O)NC(=O)CNC(=O)[C@H]2CCCN2C(=O)[C@H](CCC(N)=O)NC(=O)[C@H]([C@@H](C)O)NC(=O)[C@H](C(C)C)NC(=O)[C@H](CCCNC(=N)N)NC1=O
B7: cyclic nNOS β-hairpin peptide D114K (peptide)
peptide: cyclo(THLETTFTGKGTPKTIRVTQ[dP]GQ)
SMILES: CC[C@H](C)[C@@H]1NC(=O)[C@H]([C@@H](C)O)NC(=O)[C@H](CCCCN)NC(=O)[C@@H]2CCCN2C(=O)[C@H]([C@@H](C)O)NC(=O)CNC(=O)[C@H](CCCCN)NC(=O)CNC(=O)[C@H]([C@@H](C)O)NC(=O)[C@H](Cc2ccccc2)NC(=O)[C@H]([C@@H](C)O)NC(=O)[C@H]([C@@H](C)O)NC(=O)[C@H](CCC(=O)O)NC(=O)[C@H](CC(C)C)NC(=O)[C@H](Cc2c[nH]cn2)NC(=O)[C@H]([C@@H](C)O)NC(=O)[C@H](CCC(N)=O)NC(=O)CNC(=O)[C@H]2CCCN2C(=O)[C@H](CCC(N)=O)NC(=O)[C@H]([C@@H](C)O)NC(=O)[C@H](C(C)C)NC(=O)[C@H](CCCNC(=N)N)NC1=O
B8: cyclic nNOS β-hairpin peptide G115R (peptide)
peptide: cyclo(THLETTFTGDRTPKTIRVTQ[dP]GQ)
SMILES: CC[C@H](C)[C@@H]1NC(=O)[C@H]([C@@H](C)O)NC(=O)[C@H](CCCCN)NC(=O)[C@@H]2CCCN2C(=O)[C@H]([C@@H](C)O)NC(=O)[C@H](CCCNC(=N)N)NC(=O)[C@H](CC(=O)O)NC(=O)CNC(=O)[C@H]([C@@H](C)O)NC(=O)[C@H](Cc2ccccc2)NC(=O)[C@H]([C@@H](C)O)NC(=O)[C@H]([C@@H](C)O)NC(=O)[C@H](CCC(=O)O)NC(=O)[C@H](CC(C)C)NC(=O)[C@H](Cc2c[nH]cn2)NC(=O)[C@H]([C@@H](C)O)NC(=O)[C@H](CCC(N)=O)NC(=O)CNC(=O)[C@H]2CCCN2C(=O)[C@H](CCC(N)=O)NC(=O)[C@H]([C@@H](C)O)NC(=O)[C@H](C(C)C)NC(=O)[C@H](CCCNC(=N)N)NC1=O

[ ]: non-standard residue; d: D form.

The Ki is the dissociation constant of the complex between target and ligand, obtained from inhibition or displacement. Low values mean higher affinity, high ones lower affinity.

The target of this assay is T1, (7× His)-PSD-95-PDZ2 wild type (UniProt P78352 160-246).
T1 construct: domain: PDZ2; recombinant from E. coli; also called PSD-95-PDZ2 WT; not shown: 7x His tag
T1 sequence (P78352 160-246): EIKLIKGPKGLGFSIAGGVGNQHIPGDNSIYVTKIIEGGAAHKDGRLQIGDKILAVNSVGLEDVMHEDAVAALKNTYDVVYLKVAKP
Description: FP competition.
B1: the affinity corresponds to a Ki of 2590 nM and the “Relative Ki (Ki mut/Ki WT)” value stood at 1.73.
The matching figures for B2: 2400 nM and 1.6.
The matching figures for B3: 6190 nM and 4.13.
The matching figures for B4: 1190 nM and 0.79.
As for B5, affinity was put at a Ki of 990 nM and the “Relative Ki (Ki mut/Ki WT)” value worked out at 0.66.
For B6, in that order: 77400 nM and 51.6.
For B7, in that order: 2870 nM and 1.91.
For B8, in that order: 750 nM and 0.5.

The values above are taken from patent US20230220021A1 (UNIVERSITY OF COPENHAGEN, published 2023).
